Results taken from the domain aggregation screens of Martell et al. (2025).

Experiment: soluble fraction after stress (log2 fold change); higher = more stays soluble; pooled small domains, quantitative proteomics
Conditions: stress: 75 degC
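Note: 20 min heating vs room temperature control held 20 min.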

Row | Sequence | soluble fraction (log2)
1 | HMVEQVEISILPGEYSDTISQKLLDAGLIDDKAAFSKYINDTNVDNLIQPGTFTVPKGASYEEVAKILT | 0.214
2 | HMVERRVRFTVAPGNAGLRLDLFLTAREIGLSRTQVGRAVDEGQIQVNGRPGRAGRKLKTGDVVAIVLPA | -1.13
3 | HMVESLTDRELQILSLAAKGYTNKAIAVQLGISDRTVQNHLANTFQKLNAESRTEAVMRAVSLGLISA | -0.542
4 | HMVETVQVVGAGQDIMPGSRINYSSLHYITVPRSYFHEDMFAKNNLVVGRIARAYVAKGEPLLAASLMPK | -2.29
5 | HMVEVPYSEFLKELDAGNVKDVYVSNGESQIQFTKKDQKQWNLSYKTGPIPGDDLVKRLQNADVENFT | 0.109
6 | HMVEVTTDEITRPGAMVSGSVTFSDGVKAIWLIDEYGRPGLEPETPGYQPSESDLSEFEKHLRALLQ | 0.362
7 | HMVEVVDAEKLEERLSKVFSAAVLLEIYNENPAHGKEYAYLFTARKNAVEEMIENGQMKRETWEAK | -0.987
8 | HMVFSKEELLFNSDSLLSLYPNDNKLLETILSEKIDHAVKNNDMSMYKEILVIDPKNPLANYHLLM | 0.354
9 | HMVFTEEERAEYREKMLDAGFDLLKQYGMTHMSVAKITEAAGIGVSTFYNFFSSKEEYVYEVLQYRRRK | -1.3
10 | HMVGIVQKTFEPTGIAAEELMKTLKSDKSLDFGNVQILATPKSSTSRQVVVVSGRANDVDRVMMVLSNLDS | -0.326
11 | HMVGKIVVPHLEGKPAEMARDILARDGFKSVHEEVLPSAEFGAGRVVRTEPHAGTNVAKTDPVTIFVSVGL | -0.268
12 | HMVGLTDLQRNVLVQIARGKSRQLISRTLKVTPAEISAALKVAQRRYRVASSTEVIVQALYDKTLSFHEIM | -0.707
13 | HMVIIPNILNKYKGLAFRQLEQVGLKIGDTIYEPNIQRDAVLRMQINGRSVQPGDQVMRFSVVDLVIG | -3.2
14 | HMVINKRELNVLSIYSRGSEKRAIILFPTGQTKLVKVGDTLNGGRVAAIGTTEIRYIKGGNNLVLKIPQ | -2.75
15 | HMVINVNEIIRRIKELKTFKTDRQVADFLGVSKATVSNWMARNSIDFPLLINKLDGVDLTWLLTGRGTPE | -2.15
16 | HMVIPATPTARRAKIAGLLADRSVRSQGELLTLLADAGIEVTQATLSRDLEALGAVKVRDGRGLVYAVPG | -0.32
17 | HMVIQRQIPPLVTRMLDGLEQFIQLDMPFDLDTRLGNIEAVRANMDRSDVTSAEAYRQVLELYSIELQ | -0.559
18 | HMVISLREINLIGVYGRPNARRALVRLSNGRYVRVEVGSDLDGGKVTAIGDEALNFVKRGRTYAIQLPA | -1.11
19 | HMVITPESVKEQVLAIISKSPAQGFNYKQISKRLNINDPSERKMVSDILRELSESGTIEEINKGKYRAKV | 0.186
20 | HMVKDYIQVTVNKEPVILKGKKDYIFIDIFNYIEFDLTIPKGSLYLLLNGKNAGYHDKLLDGDVIELGW | -2.17
21 | HMVKLDDLTGQDKASAEAAISNLGLKYSEQQEYSDEIEEGKVTRTDPGAGSTSLKAGDTVTVYISRGPE | 0.905
22 | HMVKLSATVKELLDFVIAKKTVTSSNVSKHFDISAQNASGRLKKLHATGLVLGQKEVAESGGLEFVYRS | -0.132
23 | HMVKLSDGIVEHIKSLIMAGRLKPGDKLPPEREFAATLGVSRTALREAVRTLSLMGLLDARQGEGTFVSG | -0.135
24 | HMVKPQANTIYKEYIKYRANLQNKNEFLSFSEYAKQKHNLEQMSEIMVDANLKEEMLETLKEMS | -0.0266
25 | HMVKSDLVGHRFILVEDVTPKLTPKYHYSGINWKLITTDNLVAGTRVEVIQVDVGKFHIKAIK | -1.85
26 | HMVKSIDEIYNEAVKSLANEDYDAAKKLFNYLINNFSDPDKFPLSLFWLAEIEFSSSNFDASKNYYMQ | 0.0365

Row | Sequence | soluble fraction (log2)
27 | HMVKSSVTEVISMINALPVTVKPEDKADIISARMAYDTLTEDEKALVTNYEILTAAETRFNELIATT | 0.275
28 | HMVKTIINGEEKDFDAQDFQTFGDFLKKVIPEGQILKSLKINSKDVPIAFIDELKSATVDENITIEMELA | 0.682
29 | HMVLAEPLSERELDILRLLAAGDSNKEIAAVLYITEGTVKNHVTNILGKLDARDRTQAALRARELGL | -1.21
30 | HMVLGDQTFQSASAPKVFFGGDAAYGPKNIITAVAHGHDAAVSIDRFLHGEDVSKRPGPQVNLVS | 0.287
31 | HMVLRPDDVEDSLWREWVSHRKAKRAAVTEGVLKTFRQEATKASFTLADAMRKSIDRGWTGFEAEWVARET | -0.299
32 | HMVLSPAQVRRALMVSGLFTEARVARQLGVPMDLKQILRIILRNTPPQSAMARELESAIDEIESRNAMRD | -1.7
33 | HMVLSTRERMSNILATLKGGHFVNFSDLFTPEEGRLGVVVTFLAMLELIKESLLDIVQHEVLGPIHVKARV | 0.00479
34 | HMVLTGTIKKYNNERGFGFISTSNFGDVFFHIKDFQKGEQPIPGREVYFEVVKKENKKRAIHVYYSD | -1.95
35 | HMVLVSNYGEVVRKARERKGLDHGSLAMKISEKKSIITSVESGNMKPNEKLIKKLENFLNINLM | -1.69
36 | HMVMIPDLVGETIEDAKDILEGLGFEVEVRSEFPESDWGRPFARVTSLSPSAGQEVAKGTLVIIRSF | -1.05
37 | HMVMLIVMNHTASQADIDKVIEVVSGMGFTAAPIPGGERTAIGVLGNKGYVDDSTIRDLPGVQQAIHVSKP | -1.21
38 | HMVMSVGENIAYFRKKLGLTQEMLSERIGVTAQAVSKWENGVTNPDISLLPRISEALGIGIGDLFD | -1.94
39 | HMVNAVKFAIEKMPYKYSSLLTLKYVMGYSGKEIAEITGLSETNVRQQLLKGRKLLESMLEE | -2.9
40 | HMVNGTPADPYDVLGVESSASPEELRAAWQTLVRQNHPDQLMARGVPLEAVKLAEARLVAINQAWDDLTK | -0.0568
41 | HMVNHVGITVSNLERSIQFYEALTGKKIANQDTIGGKRMAQTQGLADTLIKYANLHLDNLNIDLLEYVE | -0.92
42 | HMVNIAVMTVSDTRTEADDKSGSLLVSKIEGDGHVLADRAIITDDVPRIIAKLKEWIESPQVDVVVT | -0.0813
43 | HMVNINEVEVSRDLAHAKVFVTFVGDRTDEINTQALKVLNAAQGFLRSRIASNNHMRTTPRIHF | -0.567
44 | HMVNIPEIAKKFGKSTSEVFEQIQIGEKHEMEHTNDPKKARKIALDHLSDDMDYYKKLKKLG | 0.212
45 | HMVNLKQVELREHHPWVGHKIKELDISRHTLIVMIRRGDNAIVPNGDTLIKSGDIVFVFSKR | -2.76
46 | HMVNPHPVYRSWGLLYVEARDGDSLESIAKEFGFSVKKLAKYNEVPKDYPLEAGDIVYLEKKKK | -1.63
47 | HMVNPIDFYLLFRTELQRLAEHPITVDRLTEVTGLNKLQVLDWLKRAEQDGLVKKLNRPTRYQLN | 0.233
48 | HMVPAMGSLTLIKGGVNLRNAPGGLTIAQLDRGLVLSYTKFVQKDGYTWYLVNSPKGTGYVRSDVVQLGS | -2.58
49 | HMVPDGFDQLTEREYQVAMAVGKGLNNKEIASQLGLGERTVKAHLTTTFEKLHVRDRVQLALIVNRL | -0.683
50 | HMVPDVVGKDYALAQAELEGANLVVAKGSSRYDDTLPAGVVLATDPKVGTVVKPGAKVTVILSK | 0.217
51 | HMVPLSMLTEGQIFRGQVLDITSQGIKIQLNPEQILFARLGEQVELNIGQQMAFQVRENKGDQLIIHPMQN | -0.353
52 | HMVPVQLTPRELQVARLAAHGASSPEIAAELRVSRRTVDNQLGRVYAKLGIAGRAELAAALSRLPVSV | -1.07

Row | Sequence | soluble fraction (log2)
53 | HMVPVSIYAYNKIKTAILNNELMPGEKLVEASLAETLNMSRTPIREALRQLEQEGFVTYYPQKGSIVSH | -1.25
54 | HMVQAQGARIREARVQRGLSQAQLGEPRYSGSYISHIENGRRSPGTDVLAFIAARLGLEPGALDS | -0.978
55 | HMVQIFIPVVHDDHWFLIVFSREEDTFYVLDSLPSLSRISTINGIISTLKEHLQQASVGPQYSVKVLPVK | 0.226
56 | HMVQLAEGERYRRIQEANDFINRQQWPGKAAMGRLKDTEKAQYNLWLDYLDALEAVDTSSAPKINWPVPPE | 0.2
57 | HMVQQAVNMAKPGKLFTGPSPTSKALRDLDAGAMLYPTGEKQGPFWKVQDELGNEGWVAMGLLQLA | -0.0352
58 | HMVQVDNELTEFSVQSITRGIDALGEVTIRVTAPDGGVYTGRGADNDIIVSSTKAYLNALNRLLNDK | 0.0321
59 | HMVQYVDFVKRMIEELPWWHRRMLELKYLDGLTYEEIADELQVPVGTVKGTLHRAKELFQEILKNN | -3.29
60 | HMVRDPYELLEVPREATPDEIKSAFRKLAARHHPDRNPDDPGAQERFKEINAAYQLLSDPQKRAMFDRFGA | 0.159
61 | HMVRKIQAKLVLRLHAQGLSGRAIARSQGMSRRSVSDVLDAARAVGVGWDDVTGKTDGEVYALLFPGRG | -2.66
62 | HMVRKIRARLVLQLRAEGLSGRAIAGSQGMSRKSVTAVLDAADRAGIGWDEIAERSEGEVYALLFPGRG | -1.46
63 | HMVRQKYKSNFITVGDKSLTIHDWAQRLNLSQYALRNRYKEFGKEWVEKAIKTILETGDNTHIYK | -1.46
64 | HMVRSLADQVYERLRRNIVSGDLAPNARIVELDIAAQMGTSQGPVREALQRLEREGLVQRRAHSATFVTD | -0.554
65 | HMVRVSELAIEPRLVVEETATGFVGAVVRYANGLIELEDRHGAVRTFPLGPGYLVDGRPVSLVKPT | -0.577
66 | HMVSEDELLARIALLPYPQAKILLEERLSHDPANAKVRQLYLELAKKSGDHTEVTRHNSLLY | -0.347
67 | HMVSKIEAPLPGIILSVDVKEGDTVKAGDKLMVMEAMKMENAILAETNGVVKSIKVKIQDSVLQGDILAEI | -0.55
68 | HMVSKSDVQRALEKVEPVLRKLGGSTVEKVRVMARQATLVFEMLKSWWKGEIDLPWKTVAAMTVTLLYL | -0.451
69 | HMVSLNKTEFIAVKKASASELRDKINSLGLDVLKDATISADARTNQIIATGPKYALEQIKMLVVGLDVSS | -1.4
70 | HMVSLRQQVYDYLRSQMNQGELRPGSAINLGEMSSRFGISRTPLREALLQLETEGFVTIYPRKGIIVN | -1.63
71 | HMVSLTGEWRPSKDALDILITKGGINPNFIDDAVPEFILYWRDRGDVSNTWDSKFIQHVRRQWQFYTGI | -2.87
72 | HMVSMSFDDYVNDAKEYESEGDKDKAYNSYLEAYKLNKSSEEVLDYLIDNTEDVTLKLNYVYEYLDL | 0.00966
73 | HMVSNFEAEFGRHFAIFFPGSEFTELKLRLLEEGAELIDPIRDTPFERFFFKDPNGYIFEVIDKE | -2.81
74 | HMVSNRMVYSDFQQKWINNQVESINVNADKMTIEVTTQDEKKYTVYAPSSMIEFLNEQYPKDDIKIEYVAP | 0.153
75 | HMVSPLEKSQSFGSFEISREFARTLGLTSARNWENWAASDSRPINIPYSPNVFYKNKGWIDWSDWLGTE | -0.279
76 | HMVSRQINVIPDDLAGLRLDQALAHLFPQHSRSRLKEWLLEDIIIVQGGPKRPKDIVSGGEIVEIKL | -0.165
